Laboratory results taken from the MegaScale stability set (Tsuboyama et al. 2023).

B1: r16_88_TrROS_Hall (parent)
chain: EVIELKIKFKTPEQREKLKEIAKKLNAEVVEEKDGEVIIRFKTPEQAERALKEAEKLGAEVEL

Variants of: B1
Assay: folding stability dG (cDNA display proteolysis); higher = more stable
Conditions: PBS, room temperature

Folding stability dG [kcal/mol] of substitutions, site by site:
K19: C 4.22 | A 4.18
K17: I 4.18 | F 4.57 | T 4.2 | W 4.61 | M 4.42 | L 4.53 | Y 4.56 | H 4.4 | G 4.38 | A 4.54 | E 4.3 | D 4.49 | C 4.36 | P 4.28 | Q 4.42 | N 4.42 | V 4.28 | R 4.51 | S 4.45
V2: L 4.27 | W 4.56 | M 4.45 | P 4.16 | G 4.48 | F 4.68 | D 4.1 | Q 4.45 | K 4.33 | T 4.19 | A 4.3 | E 4.13 | C 4.51 | N 4.22 | I 4.15 | Y 4.53 | S 4.13 | H 4.34 | R 4.21
P12: I 4.47 | M 4.53 | R 4.73 | S 4.44 | A 4.39 | K 4.4 | N 4.23 | D 4.2 | T 4.57 | G 4.38 | Q 4.3 | E 4.46 | V 4.49 | H 4.59 | Y 4.91 | L 4.31 | F 4.85 | W 4.88 | C 4.54
K8: Q 4.14 | M 4.48 | R 4.62 | T 4.33 | N 4.08 | L 4.31 | Y 4.61 | H 4.25 | W 4.83 | P 4.21 | S 4.1 | C 4.15 | F 4.53 | D 3.72 | G 4.05 | I 4.12 | E 3.87 | V 4.34 | A 4.09
I7: H 3.18 | W 4.97 | L 4.64 | R 3.04 | Y 4.82 | S 3.87 | V 4.44 | N 2.98 | A 4.69 | P 2.3 | K 2.77 | E 2.11 | D 1.65 | F 4.53 | M 4.39 | T 4.09 | G 4.36 | C 4.31 | Q 3.21
F9: A 4.06 | V 4.27 | K 2.75 | I 3.96 | G 3.9 | E 2.48 | Q 3.28 | T 3.73 | C 4.19 | M 3.98 | S 3.85 | W 4.61 | P 4.02 | N 3.54 | R 2.76 | L 4 | H 4.19 | D 3.45 | Y 4.33
E13: Y 4.76 | S 4.66 | K 4.51 | G 4.51 | M 4.65 | D 4.3 | T 4.32 | L 4.88 | A 4.33 | H 4.41 | N 4.57 | F 4.99 | Q 4.57 | V 4.37 | W 4.85 | C 4.88 | R 4.58 | P 4.54 | I 4.32
E1: Q 4.25 | N 4.33 | S 4.32 | R 3.94 | M 4.3 | Y 4.34 | W 4.18 | V 4.06 | P 4.22 | H 4.08 | T 4.26 | L 4.31 | I 4.29 | K 4
T11: G 4.26 | M 4.62 | W 4.6 | F 4.54 | L 4.75 | E 4.14 | A 4.39 | K 4.23 | R 4.37 | Y 4.02 | N 4.26 | Q 4.33 | D 4.03 | H 4.42 | I 4.59 | P 3.48 | C 4.58 | V 4.48 | S 4.44
L5: G 4.02 | V 4.29 | I 4.26 | R 4.4 | A 4.37 | N 3.85 | C 4.29 | D 2 | M 4.49 | H 4.34 | K 4.38 | E 3.72 | P 2.55 | Q 4.28 | S 3.94 | F 4.91 | T 4.04
Q14: S 4.19 | E 3.98 | P 3.48 | T 4.3 | M 4.43 | I 4.1 | R 4.42 | D 4.16 | W 4.3 | N 4.47 | V 4.38 | K 4.09 | C 4.28 | L 4.33 | Y 4.18 | F 4.25 | G 4.33 | A 4.33 | H 4.2
E16: P 4.03 | R 4.54 | V 4.47 | K 4.47 | L 4.6 | C 4.51 | I 4.38 | T 4.36 | M 4.6 | S 4.44 | G 4.52 | N 4.5 | A 4.32 | D 4.24 | Q 4.43 | H 4.59 | F 4.73
K6: D 3.67 | R 4.73 | Y 4.77 | G 4.02 | E 3.75 | C 4.34 | L 4.32 | T 4.34 | N 4.39 | A 4.22 | W 4.94 | H 4.48 | S 4.26 | P 3.96 | M 4.43 | I 4.47 | Q 4.17 | F 4.76 | V 4.37
E4: L 4.56 | P 4.4 | Q 4.79 | D 4.4 | G 4.3 | W 4.66 | V 4.58 | A 4.69 | C 4.76 | S 4.54 | R 4.58 | M 4.72 | F 4.76 | Y 4.64 | K 4.51 | N 4.35 | I 4.54 | H 4.42
R15: Y 4.58 | F 4.35 | K 4.13 | V 4.29 | T 4.16 | W 4.66 | H 4.27 | C 4.31 | M 4.31 | A 4.13 | Q 4.22 | N 4.17 | G 3.95 | E 4.31 | S 4.17 | I 4.37 | P 3.44 | D 4.11 | L 4.18
K10: F 4.18 | N 4.22 | C 4.2 | E 4 | M 4.19 | V 4.2 | H 4.28 | Q 4.34 | A 4.22 | L 4.29 | W 4.3 | I 4.09 | D 4.11 | P 4.2 | R 4.47 | Y 4.5 | G 4.21 | T 4.38 | S 4.16
I3: E 4.3 | Y 4.7 | S 4.71 | F 4.97 | L 4.63 | R 4.61 | D 4.52 | C 4.46 | T 4.67 | W 4.71 | N 4.76 | M 4.63 | G 4.47 | H 4.7 | P 4.46 | K 4.76 | V 4.58 | A 4.54 | Q 4.76
L18: R 2.12 | I 4.33 | T 4.15 | P 1.65 | N 2.97 | H 3.49 | F 4.29 | S 4.19 | Y 4.53 | M 4.28 | A 4.39 | C 4.11 | E 1.57 | V 4.26 | Q 2.9 | G 3.83 | W 4.54 | D 1.24 | K 1.68
